Measurements as given in patent publication US20150203575A1.
Each block holds one substance with its values, some of them ahead of it.

Assays:
[1] = biological target: FceRII expressed on cells (human) (UniProt P06734); assay: flow cytometry, transfected 293T cells, 50 µg/ml
[2] = biological target: FceRII expressed on cells (human) (UniProt P06734); assay: flow cytometry, transfected 293T cells, 2 µg/ml
[3] = biological target: human NPDC1 expressed on cells (human) (UniProt Q9NQX5); assay: flow cytometry, transfected 293 cells, 2nd Ab anti-goat-IgG-PE; untransfected 293: 0.098
[4] = biological target: human COLEC12 expressed on cells (human) (UniProt Q5KU26); assay: as above
[5] = biological target: human CD99 expressed on 293T cells (human) (UniProt P14209); assay: as above
[6] = biological target: human NPDC1 expressed on cells (human) (UniProt Q9NQX5); assay: flow cytometry, transfected 293 cells, 2nd Ab anti-His-PE; untransfected 293: 0.059
[7] = biological target: human COLEC12 expressed on cells (human) (UniProt Q5KU26); assay: as above
[8] = biological target: human CD99 expressed on 293T cells (human) (UniProt P14209); assay: as above
[9] = biological target: human NPDC1 expressed on cells (human) (UniProt Q9NQX5); assay: flow cytometry, transfected 293 cells, 2nd Ab anti-mouse IgG2a FITC; untransfected 293: 0
[10] = biological target: human NPDC1 expressed on cells (human) (UniProt Q9NQX5); assay: flow cytometry, transfected 293 cells, 2nd Ab anti-His-PE; untransfected 293: 0.13
[11] = biological target: human COLEC12 expressed on cells (human) (UniProt Q5KU26); assay: as above
[12] = biological target: human CD99 expressed on 293T cells (human) (UniProt P14209); assay: as above

human CD99 expressed on 293T cells (human), sequence (P14209 23-185): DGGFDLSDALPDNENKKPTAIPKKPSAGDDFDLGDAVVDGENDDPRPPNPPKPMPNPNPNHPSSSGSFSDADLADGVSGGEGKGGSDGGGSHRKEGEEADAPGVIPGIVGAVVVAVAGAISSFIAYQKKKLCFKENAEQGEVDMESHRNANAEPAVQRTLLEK
mPILRβ-his (R&D) (receptor), sequence (Q2YFS2 29-195): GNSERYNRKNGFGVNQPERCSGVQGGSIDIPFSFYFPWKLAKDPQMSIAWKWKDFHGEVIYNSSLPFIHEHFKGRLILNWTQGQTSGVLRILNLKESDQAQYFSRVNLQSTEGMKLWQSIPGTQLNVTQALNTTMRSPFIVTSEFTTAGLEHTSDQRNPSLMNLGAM
mPILRα-his (R&D) (receptor), sequence (Q2YFS3 32-198): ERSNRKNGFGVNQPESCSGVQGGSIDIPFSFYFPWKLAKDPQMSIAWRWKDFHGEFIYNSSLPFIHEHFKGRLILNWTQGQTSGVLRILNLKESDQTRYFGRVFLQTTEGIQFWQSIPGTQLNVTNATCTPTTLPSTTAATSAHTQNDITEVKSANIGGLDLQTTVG
human COLEC12 expressed on cells (human), sequence (Q5KU26 whole entry S522P/G606S): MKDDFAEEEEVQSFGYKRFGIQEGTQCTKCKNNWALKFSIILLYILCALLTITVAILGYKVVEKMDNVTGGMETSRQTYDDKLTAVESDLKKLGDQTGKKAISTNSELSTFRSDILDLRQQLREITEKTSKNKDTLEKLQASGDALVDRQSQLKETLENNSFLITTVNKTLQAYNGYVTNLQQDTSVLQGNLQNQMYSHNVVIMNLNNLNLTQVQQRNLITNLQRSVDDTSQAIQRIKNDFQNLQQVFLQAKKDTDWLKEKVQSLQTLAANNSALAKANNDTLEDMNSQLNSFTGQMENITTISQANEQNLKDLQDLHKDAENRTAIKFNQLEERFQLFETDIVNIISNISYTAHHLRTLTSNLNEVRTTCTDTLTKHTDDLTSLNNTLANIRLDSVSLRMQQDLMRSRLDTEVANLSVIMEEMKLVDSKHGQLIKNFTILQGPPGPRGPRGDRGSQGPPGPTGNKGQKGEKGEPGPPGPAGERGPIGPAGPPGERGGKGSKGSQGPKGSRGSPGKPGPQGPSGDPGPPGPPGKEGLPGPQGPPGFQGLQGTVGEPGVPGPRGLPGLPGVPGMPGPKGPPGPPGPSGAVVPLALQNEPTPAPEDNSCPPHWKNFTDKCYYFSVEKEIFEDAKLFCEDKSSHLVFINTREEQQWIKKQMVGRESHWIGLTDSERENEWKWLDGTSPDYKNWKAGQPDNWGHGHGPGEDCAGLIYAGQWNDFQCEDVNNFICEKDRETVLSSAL
human NPDC1 expressed on cells (human), sequence (Q9NQX5 35-325 H113Q limits assumed): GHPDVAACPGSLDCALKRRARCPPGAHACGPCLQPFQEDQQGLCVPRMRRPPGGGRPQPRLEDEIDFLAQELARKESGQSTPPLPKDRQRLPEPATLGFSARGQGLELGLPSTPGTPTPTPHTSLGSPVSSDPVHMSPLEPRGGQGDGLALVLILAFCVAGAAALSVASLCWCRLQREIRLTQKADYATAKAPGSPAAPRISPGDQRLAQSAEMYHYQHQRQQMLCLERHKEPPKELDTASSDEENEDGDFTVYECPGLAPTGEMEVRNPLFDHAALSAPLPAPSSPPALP
FceRII expressed on cells (human), sequence (P06734 whole entry N269T): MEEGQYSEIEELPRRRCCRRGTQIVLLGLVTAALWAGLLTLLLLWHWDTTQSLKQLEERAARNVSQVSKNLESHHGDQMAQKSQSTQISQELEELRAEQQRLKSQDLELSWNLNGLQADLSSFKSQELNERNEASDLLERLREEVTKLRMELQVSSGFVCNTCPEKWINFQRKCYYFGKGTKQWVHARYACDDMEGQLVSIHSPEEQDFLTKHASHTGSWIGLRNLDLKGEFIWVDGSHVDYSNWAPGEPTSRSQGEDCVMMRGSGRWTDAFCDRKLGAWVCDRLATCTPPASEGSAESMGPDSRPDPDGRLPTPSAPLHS

Substance: hPILRαR126A-Fc (from UniProt Q9UKJ1 20-197) (Fc fusion)
- % cells in lower right quadrant [2]: 0.028%

Substance: mIgG2a (Control) (antibody)
- % cells in lower right quadrant [9]: 0.018%

Substance: mPILRα-his (R&D) (receptor)
- % cells in lower right quadrant [10]: 23.6%
- % cells in lower right quadrant [11]: 12.3%
- % cells in lower right quadrant [12]: 0.24%

Continued, values first:

- % cells in lower right quadrant [1]: 47.8%
- % cells in lower right quadrant [2]: 30.3%
Substance: mPILRα-Fc (from UniProt Q2YFS3 32-198) (Fc fusion)

- % cells in lower right quadrant [3]: 1.28%
- % cells in lower right quadrant [4]: 2.19%
- % cells in lower right quadrant [5]: 0.19%
Substance: Goat IgG (Control) (antibody)

- % cells in lower right quadrant [1]: 58.1%
- % cells in lower right quadrant [2]: 15.5%
Substance: hPILRα-Fc (from UniProt Q9UKJ1 20-197) (Fc fusion)

- % cells in lower right quadrant [6]: 0.22%
- % cells in lower right quadrant [7]: 0.062%
- % cells in lower right quadrant [8]: 0.043%
Substance: mPILRβ-his (R&D) (receptor)

- % cells in lower right quadrant [1]: 0.014%
Substance: mPILRαR133A-Fc (from UniProt Q2YFS3 32-198) (Fc fusion)
